Assay results reported in patent US20250270273A1 (NEKTAR THERAPEUTICS, published 2025).

T1: IFNγR1 fused to the constant region of the antibody IgG1 (UniProt P15260 18-245, limits assumed)
T1 construct: also called IFNGR1; Interferon gamma receptor 1 fused to the Fc region; not shown: constant region (Fc) of IgG1, captured on the chip by an anti-human IgG antibody
T1 sequence (looked up): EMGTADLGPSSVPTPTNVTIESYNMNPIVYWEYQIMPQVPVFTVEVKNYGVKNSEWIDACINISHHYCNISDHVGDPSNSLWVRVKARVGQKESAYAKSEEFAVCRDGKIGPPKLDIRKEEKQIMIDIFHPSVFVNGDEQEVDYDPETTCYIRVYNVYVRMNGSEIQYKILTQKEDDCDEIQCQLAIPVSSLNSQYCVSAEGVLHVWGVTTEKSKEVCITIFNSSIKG

T2: IFN-γ receptor (IFNGR; IFNGR1 and IFNGR2) on human cells (human, UniProt P15260 18-489; P38484 22-337)
T2 sequence (looked up) 1: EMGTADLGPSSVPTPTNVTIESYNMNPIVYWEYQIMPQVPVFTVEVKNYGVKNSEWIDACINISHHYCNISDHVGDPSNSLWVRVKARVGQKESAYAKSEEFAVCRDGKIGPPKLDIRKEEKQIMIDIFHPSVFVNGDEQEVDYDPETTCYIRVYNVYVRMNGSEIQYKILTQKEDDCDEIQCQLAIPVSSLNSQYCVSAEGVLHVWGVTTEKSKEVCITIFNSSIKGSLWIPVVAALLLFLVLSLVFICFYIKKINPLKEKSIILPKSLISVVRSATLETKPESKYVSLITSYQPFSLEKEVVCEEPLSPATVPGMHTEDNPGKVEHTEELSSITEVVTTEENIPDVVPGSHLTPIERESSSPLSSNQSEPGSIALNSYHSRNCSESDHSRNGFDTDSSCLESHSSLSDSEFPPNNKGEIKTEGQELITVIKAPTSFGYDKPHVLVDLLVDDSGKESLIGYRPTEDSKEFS
T2 sequence (looked up) 2: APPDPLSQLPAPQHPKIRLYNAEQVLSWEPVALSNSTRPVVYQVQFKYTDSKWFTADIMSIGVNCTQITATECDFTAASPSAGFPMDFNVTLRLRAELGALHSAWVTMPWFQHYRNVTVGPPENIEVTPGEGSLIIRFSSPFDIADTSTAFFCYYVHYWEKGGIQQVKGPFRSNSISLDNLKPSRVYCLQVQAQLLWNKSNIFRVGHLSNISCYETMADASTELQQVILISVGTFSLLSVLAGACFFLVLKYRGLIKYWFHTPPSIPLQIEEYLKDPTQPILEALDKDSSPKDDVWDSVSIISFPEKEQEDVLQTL


Legend:
[1] = target: T1, IFNγR1 fused to the constant region of …; assay: SPR (Biacore, CM5 chip), IFNγR1-IgG1 Fc captured by anti-human IgG, analyte injected
Procedure: Briefly, the surface of a BAcore™ CM5 sensor chip was coated with anti-human IgG antibody comprising IFNγR1 fused to the constant region of the antibody IgG₁.
Each of the IFN-γ-b protein, the M135C, S98C, and S66C cysteine muteins, and Compounds 1, 2, and 3 were separately injected onto the sensor chip which was coated with IFNγR1. The affinities were measured by determining the kinetic on-rate (kₒₙ) and the kinetic off-rate (koff) rates separately, and the ratio between kₒₙ and koff was used to calculate the Kd values with the results shown in Table 9.

[2] = target: T2, IFN-γ receptor (IFNGR; IFNGR1 and …); assay: cell-based or functional assay
[3] = target: T1, IFNγR1 fused to the constant region of …; assay: SPR (Biacore, CM5 chip), IFNγR1-IgG1 Fc captured by anti-human IgG
[4] = target: T2, IFN-γ receptor (IFNGR; IFNGR1 and …); assay: cell-based or functional assay; remark: listed apart in the source

Binder	Kd [1] [nM]	koff [1] [s⁻¹]	kon [1] [M⁻¹ s⁻¹]	EC50 in HT-29 cells, MHCI [2] [ng/mL]	EC50 in HT-29 cells, MHCII [2] [ng/mL]	EC50 in HT-29 cells, PD-L1 [2] [ng/mL]	EC50 in HT-29 cells, pSTAT1 [2] [ng/mL]	fold decrease in affinity against IFN-γ-M135C [3] [fold]	EC50 (ng/mL)-% pSTAT1, CD14+CD16+ (Intermediate) monocytes of human PBMCs [4] [ng/mL]	EC50 (ng/mL)-% pSTAT1, CD14+CD16- (Classical) monocytes of human PBMCs [4] [ng/mL]	EC50 (ng/mL)-% pSTAT1, CD14loCD16hi (Non-classical) monocytes of human PBMCs [4] [ng/mL]	EC50 (ng/mL)-MFI of pSTAT1, Classical monocytes of human PBMCs [4] [ng/mL]	EC50 (ng/mL)-MFI of pSTAT1, Intermediate monocytes of human PBMCs [4] [ng/mL]	EC50 (ng/mL)-MFI of pSTAT1, Non-classical monocytes of human PBMCs [4] [ng/mL]
Compound 1, mono-mPEG-MAL-10K-rhIFN-γ-1b-M135C (ligand, Cys135 thioether-linked to linear mPEG-maleimide of about 10,000 daltons (mPEG-MAL-10K), succinimide ring closed, also called mPEG-MAL-10K-M135C-IFN-γ; M135C 10K linear) MQDPYVKEAENLKKYFNAGHSDVADNGTLFLGILKNWKEESDRKIMQSQIVSFYFKLFKNFKDDQSIQKSVETIKEDMNVKFFNSNKKKRDDFEKLTNYSVTDLNVQRKAIHELIQVMAELSPAAKTGKRKRSQCLFRGR	1.42	0.00221	1.61e+06	0.099	0.83	1.1	11	~10	0.084	0.222	0.106	2.16	0.85	0.99
Compound 2, mono-mPEG-MAL-20K-rhIFN-γ-1b-M135C (ligand, Cys135 thioether-linked to linear mPEG-maleimide of about 20,000 daltons (mPEG-MAL-20K), succinimide ring closed, also called mPEG-MAL-20K-M135C-IFN-γ; M135C 20K linear) MQDPYVKEAENLKKYFNAGHSDVADNGTLFLGILKNWKEESDRKIMQSQIVSFYFKLFKNFKDDQSIQKSVETIKEDMNVKFFNSNKKKRDDFEKLTNYSVTDLNVQRKAIHELIQVMAELSPAAKTGKRKRSQCLFRGR	1.88	0.00106	637000	0.076	0.7	1.2	14	–	0.179	1.45	0.367	7.62	4.28	4.57
Compound 3, mono-mPEG2-ru-MAL-20K-rhIFN-γ-1b-M135C (ring closed) (ligand, Cys135 thioether-linked to branched mPEG2-maleimide of about 20,000 daltons (mPEG2-MAL-20K), succinimide ring closed, also called mPEG2-MAL-20K-M135C-IFN-γ; M135C 20K branched (RC)) MQDPYVKEAENLKKYFNAGHSDVADNGTLFLGILKNWKEESDRKIMQSQIVSFYFKLFKNFKDDQSIQKSVETIKEDMNVKFFNSNKKKRDDFEKLTNYSVTDLNVQRKAIHELIQVMAELSPAAKTGKRKRSQCLFRGR	4.9	0.00157	321000	0.17	1.8	2.2	89	–	4.38	14	4.84	64.2	32.7	35
rhIFN-γ-1b-M135C cysteine mutein (ligand, also called IFN-γ-M135C; hIFN-γ M135C) MQDPYVKEAENLKKYFNAGHSDVADNGTLFLGILKNWKEESDRKIMQSQIVSFYFKLFKNFKDDQSIQKSVETIKEDMNVKFFNSNKKKRDDFEKLTNYSVTDLNVQRKAIHELIQVMAELSPAAKTGKRKRSQCLFRGR	0.123	–	–	–	–	–	1.4	–	–	–	–	–	–	–
rhIFN-γ-1b-N98C cysteine mutein (ligand) MQDPYVKEAENLKKYFNAGHSDVADNGTLFLGILKNWKEESDRKIMQSQIVSFYFKLFKNFKDDQSIQKSVETIKEDMNVKFFNSNKKKRDDFEKLTCYSVTDLNVQRKAIHELIQVMAELSPAAKTGKRKRSQMLFRGR	–	–	–	–	–	–	1.7	–	–	–	–	–	–	–
rhIFN-γ-1b-S66C cysteine mutein (ligand, also called IFN-γ-S66C; hIFN-γ S66C) MQDPYVKEAENLKKYFNAGHSDVADNGTLFLGILKNWKEESDRKIMQSQIVSFYFKLFKNFKDDQCIQKSVETIKEDMNVKFFNSNKKKRDDFEKLTNYSVTDLNVQRKAIHELIQVMAELSPAAKTGKRKRSQMLFRGR	0.534	0.00137	2.57e+06	–	–	–	1.5	–	–	–	–	–	–	–
